T1: PEDF-IgG Fc fusion protein (PEDF-Fc) (human, UniProt P36955 20-418)
T1 sequence (looked up): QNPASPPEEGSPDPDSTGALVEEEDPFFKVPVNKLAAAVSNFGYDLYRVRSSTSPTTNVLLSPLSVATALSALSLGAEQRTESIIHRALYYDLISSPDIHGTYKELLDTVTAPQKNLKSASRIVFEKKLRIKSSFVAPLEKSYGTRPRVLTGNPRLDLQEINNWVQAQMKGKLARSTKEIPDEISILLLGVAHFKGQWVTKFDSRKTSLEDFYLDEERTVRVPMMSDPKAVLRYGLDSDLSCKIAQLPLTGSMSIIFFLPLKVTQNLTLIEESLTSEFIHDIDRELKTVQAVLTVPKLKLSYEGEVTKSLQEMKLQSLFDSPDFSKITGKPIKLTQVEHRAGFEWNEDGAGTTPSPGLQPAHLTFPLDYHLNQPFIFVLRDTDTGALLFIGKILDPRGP


Legend:
[1] = target: T1, PEDF-IgG Fc fusion protein (PEDF-Fc); assay: peptide or protein array
[2] = target: T1, PEDF-IgG Fc fusion protein (PEDF-Fc); assay: colorimetric cell binding assay

Binder | binding result [1] | binding result [2]
EKNKRASVRRRIDQSNSHANI [VEGFR-1/Flt-1 amino acid stretch (1), 245-265 (D3), cellulose-bound peptides] | binds | –
YDKAFITVKHRKQQVLETVAGKR [VEGFR-1/Flt-1 amino acid stretch (2), 303-325 (D4), cellulose-bound peptides] | binds | –
IRGEHCNKKAVFSRISKFKSTRN | binds | –
NKRASVRRRIDQSNSHA [peptide AE10] | – | binds
AFITVKHRKQQVLETVA [peptide AF10] | – | binds

— paper PMC11346174 (Investigative Ophthalmology & Visual Science, 2024)
